# Measurements as given in a protein production outcome set (Wang et al. 2014).
# Experiment: label from the status in PepcDB records
row,Sequence,protein production
1,MDDLKTRVITASVVAPFVVLCFVSYESLIGLVSAILILAGYELITLEMKERDARFFYVILLALYPVLYGLVFEEPTQPLSILFITGVVFSLITDKDPSQVFKTVAAFSIALIYVTFFLSFFLPIYRDFGAANALLVLTSTWVFDSFAYFTGLKFGRTRISPRYSPRKSLEGVIGGFLGVVIYTFLYRLVVNDLLSVNVISFRTFLPFAATVAIMDTFGDIFESALKRHYGVKDSGKTLPGHGGMLDRIDGLLFVAPVSYIVFKILEGVVR,failed
2,MDDLNPLAGTAHLLEEVDKKLMVLLRDGRTLIGYLRSVDQFANLVLQRTIERIHVGNEYGDIPRGVFIIRGENVVLLGEIDREKEQKLPLKEISVDEILDAQRREQEQRQEKHRLVSKALKERGLAVDANIINEDFC,failed
3,MDDWEDEKIAPLPAKVELKSNWDDEDVDENEIKDSWEDDDDEPAQPPVINPAPEKAPKKAAPKTVEKKGKAVEVPKEAPKEKPLDPIAEKLRQQRLVEEADYRATAELFGVKDDDKNLDMFIPKSESDFLEYAEMISHRIKPYEKSYHYIALLKTIMRLSLTNMKAADVKDVASSITTIANEKLKAEKEAAAGKKKGGKKKQLIVDKANDDLVAGPYDAMDDFDFM,failed
4,MDEIKIEKLKKLDKKALNELIDVYMSGYEGLEEYGGEGRDYARNYIKWCWKKASDGFFVAKVGDKIVGFIVCDKDWFSKYEGRIVGAIHEFVVDKKFQGKGIGRKLLITCLDFLGKYNDTIELWVGEKNYGAMNLYEKFGFKKVGKSGIWVRMIKRQNL,not failed
5,MDEILARAGIFQGVEPSAIAALTKQLQPVDFPRGHTVFAEGEPGDRLYIIISGKVKIGRRAPDGRENLLTIMGPSDMFGELSIFDPGPRTSSATTITEVRAVSMDRDALRSWIADRPEISEQLLRVLARRLRRTNNNLADLIFTDVPGRVAKQLLQLAQRFGTQEGGALRVTHDLTQEEIAQLVGASRETVNKALADFAHRGWIRLEGKSVLISDSERLARRAR,not failed
6,MDEKKIPRSLQAIIAQVKAHYADDQELQTLFEQCFLNTYLTTIQEDEQGTFVVTGDIPAMWLRDSSAQVRPYLTVVKEDADMARMIKGVIERQWRYILHDPYANAFNQTANKQGHQQDRTEMSPLVWERKYELDSLCYPIQLAYLYWKATGDDSVLQPTLKQVLETIYRIWKIEQDHEAKSSYSFERDDCRVSDTLLRKGKGGYSVPTGMTWSGFRPSDDACLYGYLIPANMFAVVVSNYAVELLTAMEEIKLAEEFRELEADIRQGIGQYGKMDHPVYGEIYVYETDGNGRVNLMDDANVPSLLAIPYLGYTTADDPVYQNTRRFILSRDNPYYYEGSYAKGVGSPHTPDHYVWHISLAIQGMTAIDSKEKKQIVAMFKQTHADTYFMHEGFDVDRPEQYTRSWFAWANSMFSEFLLSEAGIYVPGSPLENMKNNKAGDRHVLSTGKAAKPNQ,failed
7,MDELFTESAKAVLAIAQEEAKYFRHQSVGSEHLLLALVLEPNGIAGKTLRQLNTDTEDIREEIEHLSGYGTMQSPMGNNNLYLPYSPRAKQIFAYAGDEAKRLGAQKIGTEHLLLGLLRDEEILASRILVNLGLSLSKMRQLLLKKMG,not failed
8,MDELRELLKGEQQGIKILKEVLKKAKEGDEQELARLNQEIVKGEKQGVKVYKEAAEKARNPEKRQVIDKILEDEEKHIEWHKAASKQGNAEQFASLVQQHLQDEQRHVEEIEKKNLEHHHHHH,not failed
9,MDETEHMPRYTLTLVDSTGAMEPLILMDDDLKSIAAKLEGRVSAKTRGRRPRGTGGISATPKGYRAYSTVTDPLTGKDHRVSGFGRTRSQAEARLKEKLAEFDRTHRVGYVRPPTVAEWMDHWLTDVCKPRLKPRTWGTYASVIANNIVPSIGAVRLDELKPAHFRRMERYVMDEQGKSSGTAGSAWRTLHKALEDAVLEGVIERNPAVKGTAPRVALKERAALTPEQAADLIAAETDDTWRLMWMLAFMTGMRQGERLGLTEDELRRDGDRLIILVEWQAQHLTKREVEGLPKGVECTPLGNGMYRTRPKTEKGRRAIPLPEALADQLLAYIERHGVNGDGLVFHDDRGLPLTGCVERRRWYRALDRVGLGHEYVPHSARHTTATILNRLGLDDVTRTAIMGHSRVSTTNEIYTHVELDRLVAATDGVERAIEG,failed
10,MDETGNLTVSSATCHDTIDDFRNQVYSTLYSMISVVGFFGNGFVLYVLIKTYHKKSAFQVYMINLAVADLLCVCTLPLRVVYYVHKGIWLFGDFLCRLSTYALYVNLYCSIFFMTAMSFFRCIAIVFPVQNINLVTQKKARFVCVGIWIFVILTSSPFLMAKPQKDEKNNTKCFEPPQDNQTKNHVLVLHYVSLFVGFIIPFVIIIVCYTMIILTLLKKSMKKNLSSHKKAIGMIMVVTAAFLVSFMPYHIQRTIHLHFLHNETKPCDSVLRMQKSVVITLSLAASNCCFDPLLYFFSGGNFRKRLSTFRKHSLSSVTYVPRKKASLPEKGEEICKV,failed
11,MDEVLKEILSSYQKRALKLTKRVRKKIFKNDPTENQKKAIKIALNTPDIAIIQGPPGTGKTTVINAICERLFEEYPKDKNIKGQILLCAQGHDATNNARERIKVGGLPTFKFGAKKNAKEEQYKQDERLNERLREFAETLIESVRKKLQKLGDYENIEKILDLEEALRRYYSSPISELEFLKEIEKNESFF,failed
12,MDFDYTIKALKTKKKLDAKPNTHTDFVYTTKALRSRKKLDTKPNIHTDFGYAIKAWRSKKKLDIVLESNMTRYMCMIEYKN,failed
13,MDFKSSDAIRGPRTEDHLPHTAQAAVKIVIVGGFGVGKTTMVGSVSEIRPLTTEETMTQMGIGVDDNYGSESKTATTVAMDFGRISITEQLVLYLFGTPGQERFWFLWNGLFEGALGAVVLIDTRRLEVSFDVIGRLEERGVPFVIAVNDFPDAPRYPVEDLRGALDLTEDIPIVKCDARRRASSREVLMTLMHFLHSLAVSKTSVLEHHHHHH,failed
14,MDFLTKLAIAFLIGIMVGVEREHRGLEHEIFAGVRSYSITCITGMLVALASESIGTGFVYVSTLFFAAMCSIITYSKIFLFKRIGVTSPITLFFIFVMGVLVGYDYGLFAIVSSIVVAFLLIQKQPLHQFAGNLTKEELYNAIQFLAVAFILYPVMPEKQFFGLLNLRYAILIVILVSLISFSSYVLLRKFGTKRGLYYSGFLGGFINSEATTGALAGLSKKAEEMAAPVITGILLCNISMLIRNLVLAFIVDPTGRTTMLMLLPQLVLIIVSIGMAYRHSKKVCPIGGGELKIQSPFSLGQAFKFGIAFTLILVIGNFAYNAAGTTGIYLTALGALVSSSGVIVSVTLLAVSGNISYEVAANTAVIASLVSTVNKILLSKISGSSSLFSLAIKDFGIIAATGTLALVILNFL,failed
15,MDGATLAEVMRQRGINMRYLGKVLDLVLRSPARDQLDHIYKIGIGELITRSAKHIFKTYLQGVELSGLSAAISHFLNCFLSSYPNPVAHLPADELLSKKRNKRRKNRPPGAADNTAWAVMTPQELWKNICHEAKNYFDFTLECDSVDQAVETYGLQKITLLREISLKTGIQILLKEYSFDSRHKPAFTEEDVLNIFPVVKHVNPKASDAFHFFQSGQAKVQQGFLKEGCELINEALNLFNNVYGAMHVEICACLRLLARLHYIMGDYAEALSNQQKAVLMSERVMGIEHPNTIQEYMHLALYCFASSQLSTALSLLYRARYLMLLVFGEDHPEMALLDNNIGLVLHGVMEYDLSLRFLENALAVTTKYHGPKALKVALSHHLVARVYESKAEFRSALQHEKEGYTIYKTQLGEDHEKTKESSEYLKCLTQQAVALQRTMNEIYRNGSSANIPPLKFTAPSMTSVLEQLNVINGILFIPLSQKDLENLKAEVARRHQLQEANRNRDKAEEQPMAPEPEPEPEPERAVEDMGSPQTAKEGPSSLNLQG,failed
16,MDGLHVSIVSVALFIILFVIFVFLGFYGSRWRRGDLSKLHEWALAGRRLGPYLMWFLLTADLYTAYTFIAVPSLVLASGPVGFFAAFYSAVTPFIALLFMPRLWTIAKNRGYVTAADFIKDRFNSRILAGLVAITGVVAELPYIALQIVGMQVALLILLLGLGVSNITLASDLSLLVAFIILAAFVFTSGLRGAALTAVYKDIIILGTIISIAIYVPLAFGGFSGAFHNAQTLSSQINLALNNVNKPIFYNYLPNTLAARTAYISLAIGSAFALYLYPHAVNASVSSDSKKSLKLSLALQPFYSIILAVIALFGILVYANSKVVNFIAKTHSGAVAVPALIGYSMPDWFVGIALLGIFIGGLVPAAIMAIGAANLLTRNIIKEFKPNMSPSTESALAKWISTAFKFLALALVFATPSTYAIQLQLLGGIIILQTLPSVFLGLYTSKLNGYALVGGWAGGMFSGIYLTLLANHFGPLKTSSFITPLGPMYIGVLSTLINLAIGLIGTAIAYGAGWRPVSNIRAEEIA,failed
17,MDGLIPMALKAVKKNLTRRRYERLSYSATTRESYDFASDIEMNVDGRHHRRGWSVGDFSSLSSRETKRNGGVAPEKSLTPPREGQLVRFKSHRLFSCISGQ,failed
18,MDGVYVLSVKEDVPAAGILHAGDLITEIDGQSFKSSQEFIDYIHSKKVGDTVKIKYKHGNKNEEASIKLTAIDKKGTPGIGITLVDDLEHHHHHH,failed
19,MDHPFNQMRLKLTTELLLDLGSLKPEHIITPRIATDEELSLIHSYDYIQAIRRASHGILNLQEAKKYGLDGDDTLQFRRMHQHSARIVGGALNLADAIMDKSVKNGCHLGGGLHHSLPGRANGFCIYNDVAITIAYLIKHYNQRVLCIDTDAHHGDGTQWSFYTEDQALIYSIHETGKFLFPGSGHYTERGNEQGFGYTVNIPLEPYTEDSSYLEVFKQTIEPIIASFKPDIIVSVHGVDVHYLDPLTHMSCTLNTLYQIPYIIKSLADTYTNGKVMMFGGGGYNIWKVVPRAWSHVFLALEHHHHHH,not failed
20,MDHQLQQLLDLGLEAKCLLVGINGHWGRAPWWSRPQRGRWPGGCGHLPIFQGGPERICRVLLSARGRAAAAMAAVSWPAIRLALSHVANCATAVLPPLAIDRCQAMSRPQRPARRGAEGQVRIVGGRWRNTRLAVPSLTGLRPSSDRVRETLFNWLMPRLPGARVLDLFAGSGALGLEAVSRGAGHATLIERDSSLVQRLRAHVTRLDAATQVQVLQEDAVRWLERAPAALADIVFVDPPFAACLWPAVLERLPAHVAADAWLYLEAPADAPLLPAGWHLHREGATREVRYALYRRAAATLASDPTPVVSV,failed
21,MDHRASRTGLFILGLCFVLSLLGRGLGESFTVFLLPISGSFGWDRAEVVSIYSLTALCTGLASPLVGRLFDRSGPRVVYTLGMTLLGGALLIAAYAERLWQLQLTVGLCVGLGIAFTGNVPNSILLGRWFGARLPTAMAVVYSAIGAGVLVMLPIAQLLIDRYGWREAYLILGGAMLILLVPLSLMPWRRFAAGADAHAQRPAQDADEDGWTLGSAMRHHAFWALFATFFFTAIGMYSISAQVVAYLVDAGFTPLQAATAWGFSGVVLVVGMLGVSWLDGVIGRRPSILFSYAISITGLVLLWLLQWYPNLLLLGGFVICFGSMIGSRGPLITATAMSIFRGRRVGTIYGTISIGSGLGSAFGSWCGGLLHDLTQSYNPVLGFALVSVVLGMIPFLVVPALRERQ,failed
22,MDIEERINLVLKKPTEEVLTVENLRHLFEIGAPLQHYIGFEISGYIHLGTGLMAGAKIADFQKAGIKTRVFLADWHSWINDKLGGDLEVIQEVALKYFKVGMEKSIEVMGGDPKKVEFVLASEILEKGDYWQTVIDISKNVTLSRVMRSITIMGRQMGEAIDFAKLIYPMMQVADIFYQGVTIAHAGMDQRKAHVIAIEVAQKLRYHPIVHEGEKLKPVAVHHHLLLGLQEPPKWPIESEEEFKEIKAQMKMSKSKPYSAVFIHDSPEEIRQKLRKAFCPAREVRYNPVLDWVEYIIFREEPTEFTVHRPAKFGGDVTYTTFEELKRDFAEGKLHPLDLKNAVAEYLINLLEPIRRYFEKHPEPLELMRSVKITR,not failed
